Common to all, as to assay: dynamic light scattering; DLS at 20 mg/ml, 25 °C, with and without ammonium sulfate; dimer to monomers
Experiment [1] deals with 12-oxophytodienoate reductase 3 from tomato (SlOPR3), wild type (tomato) (UniProt Q9FEW9).
Experiment [2] has as its target SlOPR3 variant R283E (tomato) (UniProt Q9FEW9).
Experiment [3] addresses SlOPR3 variant Y364P (tomato) (UniProt Q9FEW9).

Substance “12-oxophytodienoate reductase 3 from tomato (SlOPR3), wild type (from UniProt Q9FEW9 1-396) (enzyme)” showed a stoichiometry N in experiment [1] of 2.

In the case of “SlOPR3 variant R283E (from UniProt Q9FEW9 1-396) (enzyme)”, the stoichiometry N in experiment [2] turned out to be 2.

Substance “SlOPR3 variant Y364P (from UniProt Q9FEW9 1-396) (enzyme)” registered a stoichiometry N in experiment [3] of 2.

The stoichiometry N is the number of molecules, sites or subunits per partner or assembly.

The values are drawn from PMC11300593.
